Measured values taken from US20190106460A1 (published 2019).
Like-named read-outs stand apart in the source and are kept apart here. Starred links: 1 amine or outer side, 2 acyl side, 3 side chain; linkers in the order of their positions; H or OH if unused. Non-standard residues stand in square brackets, D forms with d. *: point of attachment. Phe(4-NO2) = N[C@@H](Cc1ccc([N+](=O)[O-])cc1)C(=O)O; Benzenesulfonyl(4-OMe) = COc1ccc(S(=O)(=O)*)cc1; Y(Me) = COc1ccc(C[C@H](N[*:1])C(=O)[*:2])cc1; 3,4‑(MeO)2‑PhSO2 = COc1ccc(S(=O)(=O)*)cc1OC; E(OMe) = COC(=O)CC[C@H](N[*:1])C(=O)[*:2]; Phe(3-F) = N[C@@H](Cc1cccc(F)c1)C(=O)O; 1Nal = N[C@@H](Cc1cccc2ccccc12)C(=O)O; Glutaryl = O=C(CCCC(=O)[*:2])[*:1]; Suc = O=C(CCC(=O)[*:2])[*:1]; Propionyl = CCC(=O)*; Bz = O=C(c1ccccc1)*; Moc = COC(=O)*

B1: Bz-dEGF(3F)WE-NH2 (peptide)
peptide: Bz-[dD]EG[Phe(3-F)]WE-NH2
notes: also called UBP018
B2: Et(CO)-dEGF(3F)WE-NH2 (peptide)
peptide: Propionyl-[dD]EG[Phe(3-F)]WE-NH2
notes: also called UBP019
B3: Suc-EG-1Nal-F(4NO2)-E-NH2 (peptide)
peptide: Suc-EG[1Nal][Phe(4-NO2)]E-NH2
B4: MeO(CO)-dEGF(3F)WE-NH2 (peptide)
peptide: Moc-[dD]EG[Phe(3-F)]WE-NH2
SMILES: COC(=O)N[C@H](CC(=O)O)C(=O)N[C@@H](CCC(=O)O)C(=O)NCC(=O)N[C@@H](Cc1cccc(F)c1)C(=O)N[C@@H](Cc1c[nH]c2ccccc12)C(=O)N[C@@H](CCC(=O)O)C(N)=O
notes: also called UBP020
B5: Ac-dEGF(3F)WE-NH2 (peptide)
peptide: Ac-[dD]EG[Phe(3-F)]WE-NH2
notes: also called UBP017
B6: 4-(MeO)-PhSO2-DEGF(3F)WE-NH2 (peptide)
peptide: {Benzenesulfonyl(4-OMe)}-DEG[Phe(3-F)]WE-NH2
SMILES: COc1ccc(S(=O)(=O)N[C@@H](CC(=O)O)C(=O)N[C@@H](CCC(=O)O)C(=O)NCC(=O)N[C@@H](Cc2cccc(F)c2)C(=O)N[C@@H](Cc2c[nH]c3ccccc23)C(=O)N[C@@H](CCC(=O)O)C(N)=O)cc1
notes: also called UBP026
B7: Ga-EGFFE-NH2 (peptide)
peptide: Glutaryl-EGFFE-NH2
B8: Suc-EGF-Y(Me)-E(OMe)-NH2 (peptide)
peptide: Suc-EGF[Y(Me)][E(OMe)]-NH2
SMILES: COC(=O)CC[C@H](NC(=O)[C@H](Cc1ccc(OC)cc1)NC(=O)[C@H](Cc1ccccc1)NC(=O)CNC(=O)[C@H](CCC(=O)O)NC(=O)CCC(=O)O)C(N)=O
B9: 3,4-(MeO)2-PhSO2-dEGF(3F)WE-NH2 (peptide)
peptide: {3,4‑(MeO)2‑PhSO2}-[dD]EG[Phe(3-F)]WE-NH2
SMILES: COc1ccc(S(=O)(=O)N[C@H](CC(=O)O)C(=O)N[C@@H](CCC(=O)O)C(=O)NCC(=O)N[C@@H](Cc2cccc(F)c2)C(=O)N[C@@H](Cc2c[nH]c3ccccc23)C(=O)N[C@@H](CCC(=O)O)C(N)=O)cc1OC
notes: also called UBP029

Assays:
Skp2 = Skp2 (UniProt Q13309 1-424, limits assumed); test: cell-based or functional assay
Fbw7 = Fbw7 (UniProt Q969H0 263-707, limits assumed); test: cell-based or functional assay
[1] = biological target: T1, βTrCP (tag cleaved and complexed with Skp1) (UniProt Q9Y297 175-605; P63208 1-163); test: FP competition vs fluorescein-IκB peptide
T1 construct: Protein of the FP assay (0.035 µM); also called Beta Transducin repeat-containing protein; βTrCP/Skp1

[2] = biological target: T1, βTrCP (tag cleaved and complexed with …); test: FP competition vs fluorescein-IκB peptide; remark: listed apart in the source
[3] = biological target: T2, HisβTrCP/Skp1 and HisβTrCP/GSTSkp1 (immobilised on NTA Biacore chip) (UniProt Q9Y297 175-605; P63208 1-163); test: SPR, Biacore T200, βTrCP/Skp1 immobilised
T2 construct: SPR: KD values from both surfaces (with or without the GST moiety) were averaged to give the apparent KD; also called βTrCP surfaces
From the text: As βTrCP was His tagged, an NTA sensor chip was used. This sensor chip has a dextran surface matrix with immobilized nitrilotriacetic acid (NTA) which provides a means of capturing polyHis-tagged proteins through Nickel chelation. It was hoped that addition of Ni⁺ would orient the protein in a specific (and hopefully active) manner as it is covalently immobilised via amine coupling. Addition of EDC:NHS (N-ethyl-N′-(3-[…])-carbodiimide:N-hydroxysuccinimide) converts carboxyl groups on the dextran sensor chip surface to succinamide esters which readily form covalent bonds with primary amines. Each chip contains four flow cells (each a separate surface) which means that compounds/peptides can be passed over different forms of βTrCP and a reference surface simultaneously. If binding to βTrCP is occurring, responses should be the same (accounting for differences in density of surface etc) on each surface.
Small molecule/peptide samples to be assayed for binding to βTrCP surfaces, were provided as 10 mM stocks in 100% DMSO. All samples were tested in running buffer composed of 10 mM HEPES pH 7.4, 150 mM NaCl, 50 μM EDTA, 0.005% p20, and 1% DMSO. Serial dilutions were made using running buffer. Samples were tested over varying concentrations up to a maximum of 100 μM. Two methods of measuring the SPR response were employed: single cycle kinetics which measures the response across different concentrations of sample within a single cycle (no regeneration of surface) and a method that measures the response at a given concentration in each cycle and includes a regeneration wash after each sample injection. The regeneration solution used was the same as running buffer, but included 500 mM NaCl. Data was fitted using Biacore T200 evaluation software. KD values calculated from binding curves from both surfaces (with or without the GST moiety) were averaged to produce apparent KD's for each sample tested.

[4] = biological target: T1, βTrCP (tag cleaved and complexed with …); test: FP competition vs fluorescein-IκB peptide; remark: listed apart in the source

Sequence of Fbw7 (Q969H0 263-707 limits assumed): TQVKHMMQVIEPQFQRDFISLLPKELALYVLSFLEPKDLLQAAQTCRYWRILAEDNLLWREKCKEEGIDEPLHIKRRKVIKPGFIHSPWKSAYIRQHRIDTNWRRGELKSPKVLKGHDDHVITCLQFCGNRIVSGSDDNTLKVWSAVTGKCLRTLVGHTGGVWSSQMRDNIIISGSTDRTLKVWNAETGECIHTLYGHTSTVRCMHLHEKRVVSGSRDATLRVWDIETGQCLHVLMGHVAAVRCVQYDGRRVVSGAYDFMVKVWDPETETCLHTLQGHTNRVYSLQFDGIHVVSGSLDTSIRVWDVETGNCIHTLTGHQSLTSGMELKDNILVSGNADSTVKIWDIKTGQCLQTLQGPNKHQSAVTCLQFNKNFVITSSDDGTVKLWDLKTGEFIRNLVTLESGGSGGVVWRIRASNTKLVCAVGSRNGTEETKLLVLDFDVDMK
T1 sequence (Q9Y297 175-605, chain 1 of 2): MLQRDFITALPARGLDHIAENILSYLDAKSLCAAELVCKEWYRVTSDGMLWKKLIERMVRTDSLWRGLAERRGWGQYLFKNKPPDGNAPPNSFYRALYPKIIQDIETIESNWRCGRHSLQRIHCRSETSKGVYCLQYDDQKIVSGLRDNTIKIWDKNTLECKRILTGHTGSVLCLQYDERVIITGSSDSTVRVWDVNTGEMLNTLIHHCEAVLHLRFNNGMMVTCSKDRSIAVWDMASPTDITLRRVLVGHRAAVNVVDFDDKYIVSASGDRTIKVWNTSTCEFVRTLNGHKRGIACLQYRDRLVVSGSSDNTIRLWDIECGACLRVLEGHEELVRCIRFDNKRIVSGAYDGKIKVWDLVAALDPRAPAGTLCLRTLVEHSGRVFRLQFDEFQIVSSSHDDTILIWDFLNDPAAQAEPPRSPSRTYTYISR
T1 sequence (P63208 whole entry, chain 2 of 2): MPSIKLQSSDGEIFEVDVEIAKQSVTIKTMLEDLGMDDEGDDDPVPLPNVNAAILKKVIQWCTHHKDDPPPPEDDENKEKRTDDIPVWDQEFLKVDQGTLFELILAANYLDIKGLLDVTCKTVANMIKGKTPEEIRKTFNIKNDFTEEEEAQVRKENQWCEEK
T2 sequence (Q9Y297 175-605, chain 1 of 2): as the sequence (Q9Y297 175-605, chain 1 of 2) above
T2 sequence (P63208 whole entry, chain 2 of 2): as the sequence (P63208 whole entry, chain 2 of 2) above
Sequence of Skp2 (Q13309 whole entry): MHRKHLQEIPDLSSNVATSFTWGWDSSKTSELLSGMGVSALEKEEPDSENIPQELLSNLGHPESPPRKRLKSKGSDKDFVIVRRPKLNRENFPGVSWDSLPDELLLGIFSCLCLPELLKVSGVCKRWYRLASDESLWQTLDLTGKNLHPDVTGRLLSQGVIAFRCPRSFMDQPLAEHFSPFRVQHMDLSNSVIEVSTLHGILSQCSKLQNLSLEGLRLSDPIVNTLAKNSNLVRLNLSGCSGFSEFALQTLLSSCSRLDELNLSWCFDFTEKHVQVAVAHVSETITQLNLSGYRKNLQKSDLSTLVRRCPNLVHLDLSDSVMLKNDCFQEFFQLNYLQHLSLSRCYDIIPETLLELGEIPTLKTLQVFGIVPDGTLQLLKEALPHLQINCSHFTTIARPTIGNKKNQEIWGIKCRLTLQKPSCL

| Binder | % Inhibition Skp2 @ 10 µM (Skp2) [%] | % Inhibition Skp2 @ (100 µM) (Skp2) [%] | % Inhibition Fbw7 @ 10 µM (Fbw7) [%] | % Inhibition Fbw7 @ (100 µM) (Fbw7) [%] | IC50 [1] [µM] | IC50 [2] [µM] | Kd [3] [µM] | IC50 [4] [µM] |
| --- | --- | --- | --- | --- | --- | --- | --- | --- |
| B1 | 0 | 0 | 0 | 5 | 0.173 | 0.173 | 0.424 | – |
| B2 | 1 | 10 | 0 | 10 | 0.145 | 0.145 | 0.15 | – |
| B3 | – | – | – | – | – | – | – | 68 |
| B4 | 0 | 16 | 6 | 8 | 0.076 | 0.076 | 0.053 | – |
| B5 | 10 | 27 | 3 | 0 | 0.102 | 0.102 | 0.25 | – |
| B6 | 15 | 3 | 0 | 8 | 0.027 | 0.027 | 0.495 | – |
| B7 | – | – | – | – | – | – | – | 65 |
| B8 | – | – | – | – | – | – | – | 71 |
| B9 | 19 | 19 | 2 | 0 | 0.042 | 0.042 | 0.603 | – |
